Data published in patent US20240226163A1 (Regeneron, published 2024).

What was measured:
[1] = biological target: T1, HLA-A*02:01 presenting PAPPA2 307-316 peptide (…) (human); test: flow cytometry, peptide-pulsed T2 cells
T1 construct: On peptide-pulsed T2 cells

[2] = biological target: T2, HLA-A*02:01 presenting LPIN2 823-832 peptide (…) (human); test: flow cytometry, peptide-pulsed T2 cells
T2 construct: On peptide-pulsed T2 cells

[3] = biological target: T3, HLA-A*02:01 presenting FAT4 4053-4062 peptide (…) (human); test: flow cytometry, peptide-pulsed T2 cells
T3 construct: On peptide-pulsed T2 cells

[4] = biological target: T4, HLA-A*02:01 presenting MAGE-A10 254-263 peptide (…) (human); test: flow cytometry, peptide-pulsed T2 cells
T4 construct: On peptide-pulsed T2 cells

[5] = biological target: T5, HLA-A*02:01 presenting SCL25A19 111-120 peptide (…) (human); test: flow cytometry, peptide-pulsed T2 cells
T5 construct: On peptide-pulsed T2 cells

[6] = biological target: T6, HLA-A*02:01 presenting CELSR3 1594-1603 peptide (…) (human); test: flow cytometry, peptide-pulsed T2 cells
T6 construct: On peptide-pulsed T2 cells

[7] = biological target: T7, HLA-A*02:01 presenting THBS3 116-125 peptide (…) (human); test: flow cytometry, peptide-pulsed T2 cells
T7 construct: On peptide-pulsed T2 cells

[8] = biological target: T8, HLA-A*02:01 presenting CCDC36 417-426 peptide (…) (human); test: flow cytometry, peptide-pulsed T2 cells
T8 construct: On peptide-pulsed T2 cells

[9] = biological target: T1, HLA-A*02:01 presenting PAPPA2 307-316 …; test: flow cytometry, peptide-pulsed T2 cells, 100 nM antibody
Experimental: (§1) Samples were run on an IntelliCyt iQue flow cytometer (Intellicyt) and results were analyzed using Forecyte analysis software (Intellicyt) to calculate the mean fluorescent intensity (MFI) after gating for live cells. MFI values were plotted in Graphpad Prism using a four-parameter logistic equation over a 12-point response curve to calculate EC50 values. The secondary antibody alone (i.e., no primary antibody) for each dose-response curve was also included in the analysis as a continuation of the three-fold serial dilution and was represented as the lowest dose. The signal to noise (S/N) was determined by taking the ratio of the highest MFI on the dose response curve to the MFI in the secondary-alone wells.

[10] = biological target: T2, HLA-A*02:01 presenting LPIN2 823-832 …; test: as above
Experimental: as §1

[11] = biological target: T3, HLA-A*02:01 presenting FAT4 4053-4062 …; test: as above
Experimental: as §1

[12] = biological target: T9, HLA-A*02:01 presenting MAGE-A8 232-241 peptide (…) (human); test: as above
T9 construct: On peptide-pulsed T2 cells
Experimental: as §1

[13] = biological target: T4, HLA-A*02:01 presenting MAGE-A10 254-263 …; test: as above
Experimental: as §1

[14] = biological target: T5, HLA-A*02:01 presenting SCL25A19 111-120 …; test: as above
Experimental: as §1

[15] = biological target: T6, HLA-A*02:01 presenting CELSR3 1594-1603 …; test: as above
Experimental: as §1

[16] = biological target: T10, HLA-A*02:01 presenting MAGE-A4 230-239 peptide (…) (human); test: as above
T10 construct: On peptide-pulsed T2 cells
Experimental: as §1

[17] = biological target: T7, HLA-A*02:01 presenting THBS3 116-125 …; test: as above
Experimental: as §1

[18] = biological target: T8, HLA-A*02:01 presenting CCDC36 417-426 …; test: as above
Experimental: as §1

[19] = biological target: T10, HLA-A*02:01 presenting MAGE-A4 230-239 …; test: flow cytometry, peptide-pulsed T2 cells
Experimental: as §1

B1: mAbM34852N (antibody, V domains shown)
VH: EVQLLESGGGLVQPGGSLRLTCAASGFTFRSYAMSWVRQAPGKGLEWVSTISGNSDSTYYADSVKGRFTISRENSKNTLYLQMNSLRAEDTAVYYCAKDLHITMVRGAIPADVFDIWGQGTMVTVSS
VL: not shown
notes: Mouse constant region (detected with anti-mouse Fc secondary)
binding result [1]: no binding (tested: 100 nM)
binding result [2]: no binding (tested: 100 nM)
binding result [3]: no binding (tested: 100 nM)
binding result [4]: no binding (tested: 100 nM)
binding result [5]: no binding (tested: 100 nM)
binding result [6]: no binding (tested: 100 nM)
binding result [7]: no binding (tested: 100 nM)
binding result [8]: no binding (tested: 100 nM)
Antibody Binding Ratio (pulsed cell MFI/Unpulsed cell MFI) [9]: 0.9
Antibody Binding Ratio (pulsed cell MFI/Unpulsed cell MFI) [10]: 0.9
Antibody Binding Ratio (pulsed cell MFI/Unpulsed cell MFI) [11]: 1
Antibody Binding Ratio (pulsed cell MFI/Unpulsed cell MFI) [12]: 870
Antibody Binding Ratio (pulsed cell MFI/Unpulsed cell MFI) [13]: 0.9
Antibody Binding Ratio (pulsed cell MFI/Unpulsed cell MFI) [14]: 0.8
Antibody Binding Ratio (pulsed cell MFI/Unpulsed cell MFI) [15]: 0.8
Antibody Binding Ratio (pulsed cell MFI/Unpulsed cell MFI) [16]: 513
Antibody Binding Ratio (pulsed cell MFI/Unpulsed cell MFI) [17]: 1
Antibody Binding Ratio (pulsed cell MFI/Unpulsed cell MFI) [18]: 1
EC50 [19]: 4.7 nM
